Biological target: CDC42 (cell division cycle 42) (rat (endogenous in rat testis)) (UniProt Q8CFN2)
Experiment: proximity ligation; Duolink II in situ PLA on Bouin-fixed, paraffin-embedded rat testis sections; antigen retrieval in citrate buffer (10 mM, pH 6.0, 0.05% Tween 20); anti-ApoH goat polyclonal 2.5 ug/ml and anti-CDC42 rabbit polyclonal 5 ug/ml; probes anti-rabbit PLUS and anti-goat MINUS; controls with one primary antibody only

UniProt Q8CFN2, sequence (Q8CFN2 whole entry): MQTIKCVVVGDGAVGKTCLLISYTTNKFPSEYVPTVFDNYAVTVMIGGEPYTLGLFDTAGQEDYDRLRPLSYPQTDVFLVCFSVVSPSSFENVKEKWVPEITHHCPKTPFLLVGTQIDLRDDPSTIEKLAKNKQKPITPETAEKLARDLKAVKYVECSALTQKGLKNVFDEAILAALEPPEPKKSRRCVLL

APOH (apolipoprotein H) (from UniProt P26644 20-297) (natural protein)
PLA signals per 0.25 mm^2 (PLA signals/0.25 mm^2): 312

Source: article PMC4128672
